From US20220267421A1 (INVOX PHARMA, published 2022)
Where a chain is given by its changes, count along the chain named.

B1: FS22-053-008-AA/FS28-026 mAb^2 (bispecific antibody, human IgG1, kappa, L234A L235A, V domains shown)
VH: EVQLLESGGGLVQPGGSLRLSCAASGFTFSNYAMTWVRQAPGKGLEWVSSITPYYSKTDYADSVKGRFTISRDNSKNTLYLQMNSLRAEDTAVYYCARNWYRFDYWGQGTLVTVSS
VL: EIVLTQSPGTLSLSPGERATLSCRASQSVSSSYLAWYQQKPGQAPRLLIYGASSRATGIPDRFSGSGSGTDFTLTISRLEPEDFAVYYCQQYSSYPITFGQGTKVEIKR
notes: also called FS28-026 (in mAb^2 format)
B2: FS22-053-008-AA/FS28-091 mAb^2 (bispecific antibody, human IgG1, kappa, L234A L235A, V domains shown)
VH: B1 VH with S30T, T35S, T52K, Y55D, S56G, K57N, D59Y, W100R, Y101W, R102V
VL: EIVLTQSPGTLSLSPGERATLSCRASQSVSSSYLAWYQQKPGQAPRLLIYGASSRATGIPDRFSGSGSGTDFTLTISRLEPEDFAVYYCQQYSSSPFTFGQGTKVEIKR
notes: also called FS28-091 (in mAb^2 format)
B3: FS22-053-008-AA/FS28-024-051 mAb^2 (bispecific antibody, human IgG1, kappa, L234A L235A, V domains shown)
VH: EVQLLESGGGLVQPGGSLRLSCAASGFTLSYSSMSWVRQAPGKGLEWVSFITPSTGYTHYADSVKGRFTISRDNSKNTLYLQMNSLRAEDTAVYYCARRALIFDYWGQGTLVTVSS
VL: EIVLTQSPGTLSLSPGERATLSCRASQSVSSSYLAWYQQKPGQAPRLLIYGASSRATGIPDRFSGSGSGTDFTLTISRLEPEDFAVYYCQQASSYPLTFGQGTKVEIKR
notes: also called FS28-024-51
B4: FS22-053-008-AA/FS28-256 (bispecific antibody, human IgG1, kappa, L234A L235A, V domains shown)
VH: EVQLLESGGGLVQPGGSLRLSCAASGFTFTNTYMSWVRQAPGKGLEWVSNISPTYSTTNYADSVKGRFTISRDNSKNTLYLQMNSLRAEDTAVYYCARYNSYQGGLDYWGQGTLVTVSS
VL: B3 VL with A92S, S93Y, S94Y, L97I
B5: FS22-053-008-AA/FS28-024-053 mAb^2 (bispecific antibody, human IgG1, kappa, L234A L235A, V domains shown)
VH: B3 VH with I102V
VL: B3 VL
notes: also called FS28-024-53
B6: FS22-053-008-AA/FS28-024-060 mAb^2 (bispecific antibody, human IgG1, kappa, L234A L235A, V domains shown)
VH: B3 VH with I102W
VL: B3 VL
B7: FS22-053-008-AA/FS28-024-052 mAb^2 (bispecific antibody, human IgG1, kappa, L234A L235A, V domains shown)
VH: B3 VH with I102L
VL: B3 VL
notes: also called FS28-024-52
B8: FS22-053-008-AA/FS28-256-014 mAb^2 (bispecific antibody, human IgG1, kappa, L234A L235A, V domains shown)
VH: B4 VH with N31D, S101A, Q103A, G104A
VL: B3 VL with A92S, S93Y, S94Y, L97I
B9: FS22-053-008-AA/FS28-256-001 mAb^2 (bispecific antibody, human IgG1, kappa, L234A L235A, V domains shown)
VH: B4 VH with N31E
VL: B3 VL with A92H, S93N, S94Q, L97N
B10: FS22-053-008-AA/FS28-256-005 mAb^2 (bispecific antibody, human IgG1, kappa, L234A L235A, V domains shown)
VH: B4 VH with N31E
VL: B3 VL with S93L, S94G, L97H
B11: FS22-053-008-AA/FS28-256-018 mAb^2 (bispecific antibody, human IgG1, kappa, L234A L235A, V domains shown)
VH: B4 VH with N31Q, S101A, G104I
VL: B3 VL with A92S, S93Y, S94Y, L97I

What follows are binders tested against T1, human MSLN-His-Avi (human, UniProt Q13421 296-598, single biotin (BirA) in the biotinylated form) (assay: ratio of the two SPR KD).
T1 construct: Monomeric, made in HEK293-6E; Used both immobilised and in solution; also called hMSLN-His-Avi; biotinylated hMSLN-His-Avi
Procedure: (§1) Human MSLN-His-Avi was immobilised on flow cell 2 on a CM5 Series S BIAcore sensor chip (GE Healthcare, BR100530) using an amine coupling kit (GE Healthcare, BR10050) to approximately 200 response units (RU). Flow cell 1 was left blank for subtraction. HEK293-6E supernatants or purified proteins were adjusted with HBS-EP+(GE Healthcare) to approximately 50 nM anti-MSLN mAb per sample. Samples were injected over flow cell 1 and 2 for 2.5 min at 30 μl/min and then allowed to dissociate in HBS-EP buffer for 2.5 min. Regeneration was achieved by injecting 10 mM glycine pH 1.5 (GE Healthcare, BR100354) for 30 seconds at a rate of 30 μl/min. Subtracted data (flow cell 2−flow cell 1) were analysed using BIAevaluation 3.2 Software (GE Healthcare).
(§2) Binding of the selected anti-MSLN clones in mAb² format, to recombinant human and cyno MSLN-His-Avi antigen was measured by SPR using a Biacore T200 processing unit (GE Healthcare). As previously described, it was desirable to bind more strongly to immobilised antigen than to soluble antigen. To assess the binding properties of the clones, binding kinetics to immobilised MSLN antigen were determined as described in section 2.1.2 and compared to the kinetics obtained when MSLN antigens in solution bound to captured clones.
(§3) For the capture experiments, clones in mAb² format were captured using a BIAcore sensor series S chip Protein G (GE Healthcare, 29179315). mAb² diluted in HBS-EP buffer (GE Healthcare, BR100188) containing 900 mM […] at 1 μg/ml, were injected individually on flow cell 2, 3 and 4 at 30 μl/min to achieve a response of approximately 100 RU. G1-AA/HeID1.3 was captured on flow cell 1. The recombinant human and cyno MSLN-His-Avi (section 1.1), diluted in HBS-EP buffer containing 900 mM […], were injected on flow cell 1, 2, 3 or 4 as appropriate at a concentration range of 1000 nM to 0.051 nM with 3-fold dilutions for 5 minutes at 70 μl/min and then allowed to dissociate in buffer for 5 minutes. Regeneration was achieved by injecting 10 mM glycine pH1.5 (GE Healthcare, BR100354) and surfactant P20 (GE Healthcare, BR-1000-54) for 20 seconds at a rate of 30 μl/min.

T1 sequence (Q13421 other isoform, or with tags, fused parts or gaps): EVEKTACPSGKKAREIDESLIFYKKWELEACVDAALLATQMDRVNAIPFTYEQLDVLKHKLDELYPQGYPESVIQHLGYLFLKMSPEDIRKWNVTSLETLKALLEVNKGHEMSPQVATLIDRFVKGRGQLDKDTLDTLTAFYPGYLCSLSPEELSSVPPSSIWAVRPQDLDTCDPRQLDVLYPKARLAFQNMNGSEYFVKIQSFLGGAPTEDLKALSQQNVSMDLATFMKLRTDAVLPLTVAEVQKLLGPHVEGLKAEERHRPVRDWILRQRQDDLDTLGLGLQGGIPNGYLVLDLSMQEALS

Binder	Ratio of KD in solution/immobilised for human MSLN-His-Avi
B1	5000
B2	580
B3	154
B4	37.5
B5	55.3
B6	78.6
B7	92.3

Each binder was assayed against T2, cell surface human mesothelin (MSLN) (human, UniProt Q13421 296-598) (assay: flow cytometry, NCI-H226 cells).
T2 construct: whole, on cells; also called cell surface MSLN
Procedure: (§4) Cells were centrifuged at 1200 rpm for 3 min and resuspended in ice cold FACS buffer made up of DPBS (Life Technologies, 14190169) and 1% BSA (Sigma-Aldrich, A7906) at 2×10⁶ cells/ml and 50 μl per well was seeded in a 96-well V-bottom plate (Costar, 3894). All mAbs tested were diluted in FACS buffer in 120 μl at a concentration range of 0.01-200 nM (4-fold dilutions). The NCI-H226 cells were then centrifuged, supernatant removed and cells resuspended in 100 μl of each mAb dilution and incubated at 4° C. for 45 min. Cells were washed twice by centrifugation with 150 μl FACS buffer, resuspended in 100 μl containing goat anti-human IgG (γ-chain specific) F(ab′)2 fragment-R-Phycoerythrin antibody (Sigma, P8047) diluted 1:1000 in FACS buffer and incubated at 4° C. for 45 min. The cells were washed once with 150 μl FACS buffer and then with 150 μl DPBS, resuspended in 150 μl DPBS containing DAPI (Biotium, 40043) at 1:10.000 and read on the BDCantoll or iQue (Intellicyt). Data was analysed using FlowJo v10 to determine the signal geometric mean for PE for live cells in each well.
(§5) Cell binding assays using OVCAR-3 cells were performed similarly to the assays described in section 2.4. The effect of the presence of soluble MSLN was tested by pre-incubating the antibodies in the presence or absence of soluble MSLN before mixing with cells and determining if the pre-incubation affected binding to MSLN on the cell surface. […] 60 μl from each well was then added to either FACS buffer alone or to FACS buffer containing 60 μl of 40 nM recombinant hMSLN (R&D systems, 3265-MS-050) (to give a final concentration of 20 nM hMSLN) and pre-incubated at room temperature for 1 hour before 100 μl was added to the cells. Bound antibody was detected using goat anti-human anti-Fcγ Alexa-Fluor 488 (Jackson Immunoresearch, 109-546-098).
(§6) The method used was exactly as described in section 3.1.4.

T2 sequence (Q13421 other isoform, or with tags, fused parts or gaps limits assumed): as the sequence (Q13421 other isoform, or with tags, fused parts or gaps) above

Binder	EC50 [nM]	Emax (MFI)
B1	1.91	730000
B2	2.72	740000
B3	0.78	801000
B4	15.8	276000
B5	1.19	914000
B8	3.11	771000
B9	4.98	703000
B10	5.3	760000
B6	1.46	1.01e+06
B11	6.98	637000
B7	1.32	958000

The binders below were run against T1, human MSLN-His-Avi (assay: SPR (Biacore), MSLN immobilised, mAb^2 injected).
Procedure: as §1, §2

Binder	Kd [nM]
B1	0.14
B2	1.1
B3	0.31
B4	23.7
B5	0.89
B6	0.07
B7	0.36

Each binder was assayed against T2, cell surface human mesothelin (MSLN) (assay: flow cytometry, NCI-H226 cells + 20 nM soluble MSLN).
Procedure: as §4, §5, §6

Binder	EC50 [nM]	Emax (MFI)
B1	2.65	702000
B2	3.97	745000
B3	7.47	1.1e+06
B4	39.4	351000
B5	7.52	965000
B8	2.72	616000
B9	5.36	608000
B10	3.91	654000
B6	25.7	1.23e+06
B11	4.6	494000
B7	4.28	986000

These binders were tested against T1, human MSLN-His-Avi (assay: SPR (Biacore), mAb^2 captured on Protein G, MSLN in solution injected).
Procedure: as §2
as §3, with “μl/min. Subtracted data (flow cell 2−flow cell 1, flow cell 3−flow cell 1, or flow cell 4−flow cell 1) were analysed using BIAevaluation 3.2 Software (GE Healthcare) to identify binding using the model 1:1 binding, local Rmax and with refractive index (RI) constant 0.” for “μl/min.”

Binder	Kd [nM]
B1	700
B2	615
B3	47.5
B4	889
B5	49.2
B6	5.2
B7	33.1

Target: T3, cynomolgus MSLN-His-Avi (cynomolgus, single biotin (BirA) in the biotinylated form)
T3 construct: Monomeric, made in HEK293-6E; also called cMSLN-His-Avi; cyno MSLN-His-Avi
T3 chain: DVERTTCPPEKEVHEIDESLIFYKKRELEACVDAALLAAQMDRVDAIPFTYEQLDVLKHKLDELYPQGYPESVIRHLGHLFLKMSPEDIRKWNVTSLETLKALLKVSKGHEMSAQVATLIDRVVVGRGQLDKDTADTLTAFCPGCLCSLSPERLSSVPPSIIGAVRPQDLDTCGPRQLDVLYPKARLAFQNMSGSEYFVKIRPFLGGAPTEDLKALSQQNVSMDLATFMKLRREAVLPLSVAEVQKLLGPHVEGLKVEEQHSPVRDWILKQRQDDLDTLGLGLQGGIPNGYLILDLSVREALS
Assay: as above
Procedure: as §2
as §3, with “μl/min. Subtracted data (flow cell 2−flow cell 1, flow cell 3−flow cell 1, or flow cell 4−flow cell 1) were analysed using BIAevaluation 3.2 Software (GE Healthcare) to identify binding using the model 1:1 binding, local Rmax and with refractive index (RI) constant 0.” for “μl/min.”

Binder	Kd [nM]
B1	886
B2	> 1000
B3	148
B4	738
B5	78.3
B6	266
B7	185
